# Results published in article doi:10.1101/2021.06.09.447716.
# Biological target: BACE1-GFP (UniProt P56817)
# Assay: co-IP
# Sequence of UniProt P56817 (P56817 46-501): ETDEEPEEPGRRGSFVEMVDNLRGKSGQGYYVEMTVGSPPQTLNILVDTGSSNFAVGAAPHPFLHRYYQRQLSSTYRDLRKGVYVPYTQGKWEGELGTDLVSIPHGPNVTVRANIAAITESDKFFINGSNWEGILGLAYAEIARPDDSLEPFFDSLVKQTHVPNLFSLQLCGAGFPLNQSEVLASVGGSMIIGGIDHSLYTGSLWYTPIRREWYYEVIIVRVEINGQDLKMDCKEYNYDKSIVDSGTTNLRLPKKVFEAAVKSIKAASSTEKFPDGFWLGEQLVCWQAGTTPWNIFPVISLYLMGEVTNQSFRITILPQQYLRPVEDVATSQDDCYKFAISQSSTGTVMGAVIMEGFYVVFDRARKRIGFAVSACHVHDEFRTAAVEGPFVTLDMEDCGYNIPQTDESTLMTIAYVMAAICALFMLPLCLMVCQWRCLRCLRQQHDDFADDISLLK
substance,measurement,value
"Bin1-KR (neuronal Bin1-MYC with the LOAD mutation K358R, rs138047593) (from UniProt O08539-1 1-588) (natural protein)",reduction of co-immunoprecipitated Bin1 against Bin1-WT,65%
